How the values were obtained:
Type in all cases: cell-based, human
Smad3 phosphorylation = test: phospho-Smad3 to total Smad3 ratio by western blot; details: electroporation of TGFβ dosed HFFs on tissue culture plastic
Smad2/3 = test: V5-Smad2/3 PLA with recombinant LEMD3 / CTF
Protocol: In vitro PLA: Protein-protein PLA was per-formed with antibody pairs listed in Table 4 as described in (42) with the following modifications: cells were plated on FN-coated glass or hydrogels (Matrigen, Brea, Calif.). All primary antibody in-cubations were performed for 16-24 hours at 4 C and cells were counter-stained with 1:40 phalloidin-488 or phalloidin-546 in 1×PBS for 30 minutes at room temperature and/or further processed for IF imaging using the procedure recommended in Sigma's PLA Resource Center. For all recombinant LEMD3 and C-terminal fragment experiments, HFFs were electroporated as above and allowed to culture for 24 hours on 10 μg/mL fibronectin coated glass or hydrogels before fixation. For LEMD3-phospho-Smad2/3, LEMD3-Smad2/3+TGFβ and for Smad2/3-Smad4 PLA assays: cells were treated 90 minutes before fixation with 50 μg/mL for LEMD3- and CTF-Smad2/3 assays, 100 μg/mL TGFβ for LEMD3-phospho-Smad2/3 experiments and 500 μg/mL TGFβ for Smad2/3-Smad4 experiments. For FLAG post-staining of PLA processed tissues, cells were blocked with unlabelled AffiniPure donkey anti-rabbit antibodies (Jackson ImmunoResearch, West Grove, Pa.) at a 1:10 dilution in 1×PBS-T at room temperature for 1 hour before further IF processing with 1:1000 rabbit anti-FLAG (#F7425, Sigma-Aldrich, Darmstadt, Germany) for 1 hour in PBS-T at room temperature. Following three washes with PBS-T for 5 minutes, each sample was stained with 1:500 goat anti-rabbit 546 in PBS-T for 1 hour at room temperature, washed again and then counter-stained as above. For V5 post-staining of PLA processed samples, cells were incubated with 1:200 647 labelled anti-V5 antibody (R&D Systems, Minneapolis, Minn.) diluted in PBS-T at room tem-perature for 1 hour before washing three times in PBS-T for 5 minutes each and then counter-stained as above. Imaging and analysis were performed as described for high-resolution ex vivo PLA signals except that no tissue autofluorescence signal was measured or needed to be subtracted and, when appro-priate, other IF signal (e.g. FLAG) were measured in parallel. For cells on Matrigen HTS plates (FIGS. 2c & 2d), the confluence of cells prevented identifying individual cell boundaries. Instead the PLA signal was quantified as the PLA volume divided by the nuclear intensity for each image. Each data point represents at least 3 unique surfaces with at least 12 cells measured per surface. For Smad2/3-Smad4 experiments, only two independent hydrogels were analyzed for the “CTF 500 μg/mL” and “Neon 500 μg/mL” groups due to loss of hydrogels during processing. Each bar in FIG. 5D represents the mean with standard error of the mean for all the cells analyzed from that condition.

Smad2/3-Smad4 complexes = test: Smad2/3-Smad4 PLA; details: over-expression, 500 μg/mL TGFβ, 1 kPa hydrogels, p=0.0081
Protocol: In vitro PLA: Protein-protein PLA was per-formed with antibody pairs listed in Table 4 as described in (42) with the following modifications: cells were plated on FN-coated glass or hydrogels (Matrigen, Brea, Calif.). All primary antibody in-cubations were performed for 16-24 hours at 4 C and cells were counter-stained with 1:40 phalloidin-488 or phalloidin-546 in 1×PBS for 30 minutes at room temperature and/or further processed for IF imaging using the procedure recommended in Sigma's PLA Resource Center. […] Imaging and analysis were performed as described for high-resolution ex vivo PLA signals except that no tissue autofluorescence signal was measured or needed to be subtracted and, when appro-priate, other IF signal (e.g. FLAG) were measured in parallel. […] Instead the PLA signal was quantified as the PLA volume divided by the nuclear intensity for each image. Each data point represents at least 3 unique surfaces with at least 12 cells measured per surface. For Smad2/3-Smad4 experiments, only two independent hydrogels were analyzed for the “CTF 500 μg/mL” and “Neon 500 μg/mL” groups due to loss of hydrogels during processing. Each bar in FIG. 5D represents the mean with standard error of the mean for all the cells analyzed from that condition.

PPM1α = PPM1α PLA; details: glass
Protocol: In vitro PLA: Protein-protein PLA was per-formed with antibody pairs listed in Table 4 as described in (42) with the following modifications: cells were plated on FN-coated glass or hydrogels (Matrigen, Brea, Calif.). All primary antibody in-cubations were performed for 16-24 hours at 4 C and cells were counter-stained with 1:40 phalloidin-488 or phalloidin-546 in 1×PBS for 30 minutes at room temperature and/or further processed for IF imaging using the procedure recommended in Sigma's PLA Resource Center. For all recombinant LEMD3 and C-terminal fragment experiments, HFFs were electroporated as above and allowed to culture for 24 hours on 10 μg/mL fibronectin coated glass or hydrogels before fixation. For LEMD3-phospho-Smad2/3, LEMD3-Smad2/3+TGFβ and for Smad2/3-Smad4 PLA assays: cells were treated 90 minutes before fixation with 50 μg/mL for LEMD3- and CTF-Smad2/3 assays, 100 μg/mL TGFβ for LEMD3-phospho-Smad2/3 experiments and 500 μg/mL TGFβ for Smad2/3-Smad4 experiments. […] Imaging and analysis were performed as described for high-resolution ex vivo PLA signals except that no tissue autofluorescence signal was measured or needed to be subtracted and, when appro-priate, other IF signal (e.g. FLAG) were measured in parallel. […] Instead the PLA signal was quantified as the PLA volume divided by the nuclear intensity for each image. Each data point represents at least 3 unique surfaces with at least 12 cells measured per surface. For Smad2/3-Smad4 experiments, only two independent hydrogels were analyzed for the “CTF 500 μg/mL” and “Neon 500 μg/mL” groups due to loss of hydrogels during processing. Each bar in FIG. 5D represents the mean with standard error of the mean for all the cells analyzed from that condition.

B1: CTF: consensus C-terminal fragment of LEMD3 (SEQ ID NO: 25), expressed from pFLAG-LEMD3p.Δ21-669-V5 (protein, listed as Homo sapiens)
chain: MAAAAASAPQQLSDEELFSQRDSLIQPHDRKKMKKVWDRAVDFLAANESRVRTETRRIGGADFLVWRWIQPSASCDKILVIPSKVWQGQAFHLDRRNSPPNSLTPCLKIRNMFDPVMEIGDQWHLAIQEAILEKCSDNDGIVHIAVDKNSREGCVYVKCLSPEYAGKAFKALHGSWFDGKLVTVKYLRLDRYHHRFPQALTSNTPLKPSNKHMNSMSHLRLRTGLTNSQGSS
modifications: FLAG and V5 tags
pSmad3/Smad3 ratio (Smad3 phosphorylation): decreased the pSmad3/Smad3 ratio | overall CTF-Smad2/3 interactions versus electroporation control fibroblasts (Smad2/3; 1 kPa p<0.0001, 25 kPa p=0.0227): significantly more overall CTF-Smad2/3 interactions | CTF-Smad2/3 interactions, cytoplasm (Smad2/3; 1 kPa relative to 25 kPa hydrogels, p<0.0001): significantly more Smad2/3 interactions | CTF-Smad2/3 interactions overall (Smad2/3; 1 kPa relative to 25 kPa hydrogels, p<0.0001, FIG. 5B): significantly more Smad2/3 interactions | CTF-Smad2/3 interactions, nucleus (Smad2/3; 1 kPa relative to 25 kPa hydrogels, p=0.0082): significantly more Smad2/3 interactions | fraction of CTF-Smad2/3 interactions in the nucleus (Smad2/3; depending on stiffness, FIG. 5B): 40-55% | TGFβ-driven increase in Smad2/3-Smad4 complexes (Smad2/3-Smad4 complexes): significantly abrogated | PPM1α interactions, total (PPM1α; vs Neon Only control, p<0.0001): bound PPM1α | PPM1α interactions, cytoplasm (PPM1α; vs control, p=0.0081): bound PPM1α significantly above background | PPM1α interactions, nucleus (PPM1α; vs control, p=0.2569): only endogenous LEMD3 was found to significantly bind PPM1α in the nucleus
